Results: the supplement of paper PMC10567573

B1: KRT71 (parent)
chain: FGSRSLYSLGGVRSLNVASGSGKS
B2: CDC25B (parent)
chain: ELKTFRLKTRSWAGERSRRELCSR

Variants of: B1
Test: protein stability index of a GFP-peptide fusion (GPS, HEK-293T) (PSI 1-6); higher = more stable
Conditions: c terminus: a fixed tail appended
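Also: lentivirally expressed fusions sorted by FACS into six bins by GFP to DsRed ratio, PSI derived from sequencing read proportions per bin multiplied by bin number.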

Protein stability index: each site, then its substitutions
K23: R 2.35, Q 1.77, I 2.12, C 1.97, F 2.47, N 2.09, W 2.56, M 1.49, Y 1.69, P 2.15, E 2.03, L 1.74, A 1.47, T 1.56, G 2.09, D 1.92, H 2.03, S 1.9, V 1.88
G22: L 1.64, Y 2.44, T 1.45, Q 2.09, P 1.89, H 2.75, W 2.36, I 1.57, K 1.73, R 2.48, S 1.93, N 2.27, V 1.33, M 1.93
S24: N 1.7, F 1.41, Y 1.39, R 1.49, G 1.97, Q 1.55, A 1.73, E 2.21, L 1.76, V 1.26, H 1.66, I 1.61, T 1.81, C 1.71, W 1.74, K 2.22, D 1.89, M 1.62, P 2.33

Variants of: B2
Test: as above
Conditions: c terminus: a fixed tail appended

Protein stability index, by site and new letter:
E1: A 3.96, Y 2.19, F 1.95, H 3.29, I 1.9, K 2.97, S 3.2, P 3.72, R 3.03, G 3.09, M 2.2, T 2.69, N 3.01, W 2.6, C 3.07, D 3.03, Q 3.57, L 2.8, V 3.31
L7: C 3.98, A 3.75
K3: H 3.63, D 3.33, V 2.67, N 3.38, W 2.44, Q 3.25, T 3.2, I 1.89, S 3.62, P 3.42, F 1.61, E 3.29, Y 2.91, A 2.92, G 3.71, M 3.02, R 3.6, L 2.14, C 2.78
L2: V 3.44, C 4.24, Y 3.78, K 3.53, T 3.72, M 3.87, N 4.04, E 4.97, P 3.89, G 3.75, R 3.67, F 2.54, S 4.12, D 3.81, H 3.74, Q 4.5, A 4.42, I 3.17, W 2.83
T4: E 3.16, P 3.41, G 2.9, H 3.27, A 3.47, D 4.42, V 3.27, S 3.6, K 2.61, Q 3.18, I 2.26, R 2.52, C 2.56, L 2.85, Y 3.27, F 2.79, N 2.09, M 2.96
R6: A 2.78, S 3.33, Q 3.75, H 3.25, M 2.14, L 2.04, I 2.06, T 3.39, K 2.85, V 2.32, Y 2.42, N 3.3, W 1.89, C 2.14, D 3.17, P 3.75, F 1.75, E 1.84, G 3.34
F5: M 3.6, G 3.69, Y 3.94, E 2.5, N 3.63, W 2.87, T 3.82, P 4.43, V 3.96, K 4.24, I 3.59, C 3.09, A 4.09, Q 3.67, R 3.78, H 3.92, L 3.65, D 4.08, S 3.94
